Experimental findings from patent US20260285971 (published 2026) are described below.

Test [1] concerns the target T1, human GPRC5D (human).
T1 chain: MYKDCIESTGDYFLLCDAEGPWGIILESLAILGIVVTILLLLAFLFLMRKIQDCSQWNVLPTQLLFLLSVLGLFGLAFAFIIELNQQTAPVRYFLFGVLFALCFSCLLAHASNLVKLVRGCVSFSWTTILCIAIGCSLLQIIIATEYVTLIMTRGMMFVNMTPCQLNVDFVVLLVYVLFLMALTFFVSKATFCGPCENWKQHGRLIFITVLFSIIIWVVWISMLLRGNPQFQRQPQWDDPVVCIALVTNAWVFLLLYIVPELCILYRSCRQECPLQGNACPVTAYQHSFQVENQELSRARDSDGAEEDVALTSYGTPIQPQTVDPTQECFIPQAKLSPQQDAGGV
As to the kind of experiment: FACS NCI-H929.

The target in test [2] is T1, human GPRC5D. The test is described as follows: FACS RPMI-8226.
Test [3] addresses T1, human GPRC5D. The test is described as follows: FACS molp-8.
The target in test [4] is T1, human GPRC5D. As to the kind of experiment: ELISA. For orientation: ELISA stands for enzyme-linked immunosorbent assay.
For test [5], the target named is T1, human GPRC5D. The test is described as follows: ELISA.
In test [6] the target is T1, human GPRC5D. As to the kind of experiment: FACS NCI-H929.
The target of test [7] is T1, human GPRC5D. The test is described as follows: FACS RPMI-8226.
The target in test [8] is T1, human GPRC5D. The test is described as follows: FACS molp-8.
Test [9] concerns the target T1, human GPRC5D. As to the kind of experiment: FACS molp-8.
For test [10], the target named is T1, human GPRC5D. The test is described as follows: ELISA.
Test [11] addresses T1, human GPRC5D. The test is described as follows: FACS NCI-H929.
In test [12] the target is T1, human GPRC5D. The test is described as follows: FACS RPMI-8226.

Changes are numbered by the printed parent chain.

B1: HAB02-H2 (antibody, V domains shown)
VH: EVQLVESGGGVVQPGRSLRLSCAASGYLYMGWFRQAPGKEREGVAVIVTQSGLTYYADSVKGRFTISQDNSKNRLYLQMNSLRAEDTAVYYCAAKSRLGWTLSPSAYNYWGRGTLVTVSS
One may read the EC50 as the concentration giving half of the maximal effect. A higher EC50 goes with a need for much substance. Turning to B1, the EC50 in test [1] amounted to 0.299 nM; in test [2], 3.56 nM; in test [3] it was 0.742 nM; in [4], 0.0381 nM.

B2: HAB02-H4 (antibody, V domains shown)
VH: B1 VH with V46A, Y55G
B2: the EC50 came to 0.438 nM in [1], 47.9 nM in test [2], 1.3 nM in [3] and 0.0395 nM in [4].

B3: HAB02-H8 (antibody, V domains shown)
VH: B1 VH with V46A, Y55G, L75I
For the molecule B3, the EC50 worked out at 0.401 nM in test [1], 1.5 nM in test [2], 1.06 nM in test [3] and 0.0409 nM in test [4].

B4: HAB02-H3 (antibody, V domains shown)
VH: B1 VH with V46A
Take B4: the EC50 came out at 0.51 nM in test [1], 1.88 nM in test [2], 1.6 nM in [3] and 0.042 nM in [4].

B5: HAB02-H5 (antibody, V domains shown)
VH: B1 VH with V46A, Y55G, S71A
B5: the EC50 in test [1] came out at 0.501 nM; in test [2], 1.76 nM; in [3] it was 1.06 nM; in [4] it was 0.0406 nM.

B6: HAB02-H1 (antibody, V domains shown)
VH: B1 VH with Q68R
With B6, the EC50 in [1] came to 0.312 nM; in test [2] it was 3.72 nM; in test [3] it was 0.602 nM; in test [4], 0.0405 nM.

B7: HAB02-H6 (antibody, V domains shown)
VH: B1 VH with E1D, V46A, Y55G
In the case of B7, the EC50 was 0.317 nM in [1], 10.2 nM in [2], 1.54 nM in test [3] and 0.0362 nM in test [4].

B8: HAB02-H7 (antibody, V domains shown)
VH: B1 VH with V5Q, E6A, V46A, Y55G
In the case of B8, the EC50 stood at 0.22 nM in test [1], 0.257 nM in [2], 0.547 nM in [3] and 0.0396 nM in [4].

B9: Lab03-huFc (antibody, V domains shown)
VH: DVQLQASGGGSVQAGGSLRLSCAASGDTANCIGWFRQAPGKGREGVAAIYTGLGNTYYANSAKGRFTIAQDNAKNTVYLQMNSLKPEDSAMYYCAAGGILGRFCSRYFGQGTQVTVSS
In the case of B9, the EC50 in [5] amounted to 0.0319 nM; in [6], 0.909 nM; in test [7], 0.603 nM; in [8], 0.599 nM.

B10: Lab04-huFc (antibody, V domains shown)
VH: EVQLQASGGGSVQAGGSLRLSCVASGFPYSTSRVGWFRQAPGKEREGVATIVPGTGYTYYADSVKGRFTISQDSAKNTVYLQMNSLKPEDTAVYYCAAGDRRLLLNLLAPADYFYWGQGTQVTVSS
Turning to B10, the EC50 in test [9] turned out to be 1.97 nM; in test [10], 0.0353 nM; in test [11], 0.915 nM; in test [12], 2.49 nM.

B11: HAB04-H7 (antibody, V domains shown)
VH: EVQLVASGGGLVQPGGSLRLSCAASGFPYSTSRMGWFRQAPGKEREGVATIVPGTGYTYYVDSVKGRFTISQDNAKNSLYLQMNSLRAEDTAVYYCAAGDRRLLLNLLAPADYFYWGQGTMVTVSS
B11: the EC50 in [9] stood at 2.67 nM; in test [10] it was 0.0533 nM; in [11], 1.34 nM; in test [12] it was 2.42 nM.

B12: HAB04-H14 (antibody, V domains shown)
VH: B11 VH with V61A
With B12, the EC50 in test [9] was found to be 1.35 nM; in [10], 0.0349 nM; in test [11], 0.711 nM; in test [12], 1.64 nM.

B13: HAB04-H5 (antibody, V domains shown)
VH: B11 VH with A6E, M34V, L79V
For the molecule B13, the EC50 in test [9] was 2.8 nM; in [10], 0.0333 nM; in [11], 1.02 nM; in [12], 2.05 nM.

B14: HAB04-H10 (antibody, V domains shown)
VH: B11 VH with N74S
Regarding B14, the EC50 in test [9] came to 4.3 nM; in [10], 0.0481 nM; in test [11], 1.21 nM; in test [12], 3.05 nM.

B15: HAB04-H3 (antibody, V domains shown)
VH: B11 VH with A6E
As for B15, the EC50 in test [9] came out at 3.04 nM; in test [10], 0.034 nM; in [11], 1.35 nM; in test [12], 2.81 nM.

B16: HAB04-H4 (antibody, V domains shown)
VH: B11 VH with A6E, N74S
B16: the concentration giving a half-maximal response (EC50) came out at 2.71 nM in test [9], 0.0382 nM in test [10], 1.41 nM in [11] and 2.29 nM in test [12].

B17: HAB04-H8 (antibody, V domains shown)
VH: B11 VH with V5Q, A6E, A23V
Consider B17, for which the EC50 in test [9] amounted to 1.74 nM; in [10] it was 0.0311 nM; in test [11], 1.28 nM; in test [12], 1.68 nM.

B18: Lab02-huFc (antibody, V domains shown)
VH: DVQLQASGGGSVQAGESLRLSCAASGYLYMGWFRQAPGKEREGVAAIVTQSGLTGYADSVKGRFTISQDNAENRIYLQMNSLKPEDTAMYYCAAKSRLGWTLSPSAYNYWGRGTQVTVSS
Take B18: the EC50 in [1] came to 0.672 nM; in [2], 1.75 nM; in [3] it was 0.875 nM; in test [4], 0.053 nM.

B19: HAB03-H11 (antibody, V domains shown)
VH: DVQLVESGGGLVQPGGSLRLSCAASGDTANCIGWFRQAPGKGREGVAAIYTGLGNTYYANSAKGRFTISQDNAKNSVYLQMNSLRAEDTAVYYCAAGGILGRFCSRYFGQGTMVTVSS
B19: the EC50 in test [5] came out at 0.0338 nM; in test [6], 1.12 nM; in [7] it was 0.627 nM; in test [8], 0.812 nM.

B20: HAB03-H5 (antibody, V domains shown)
VH: B19 VH with D1E
As to B20, the EC50 in test [5] is 0.0353 nM; in test [6], 0.892 nM; in test [7], 41.5 nM; in [8] it was 0.738 nM.

B21: HAB03-H9 (antibody, V domains shown)
VH: B19 VH with D1E, N30S
As for B21, the EC50 came out at 0.0326 nM in test [5], 0.895 nM in test [6], 0.777 nM in test [7] and 0.849 nM in [8].

B22: HAB03-H8 (antibody, V domains shown)
VH: B19 VH with D1E, R43L
As to B22, the EC50 came to 0.0462 nM in test [5], 1.41 nM in test [6], 0.66 nM in test [7] and 1.22 nM in [8].

B23: HAB03-H12 (antibody, V domains shown)
VH: B19 VH with D1E, E6A
In the case of B23, the EC50 in test [5] is 0.0307 nM; in test [6] it was 0.808 nM; in [7], 51.1 nM; in [8], 0.642 nM.

B24: HAB03-H10 (antibody, V domains shown)
VH: B19 VH with D1E, Q70R
Turning to B24, the EC50 amounted to 0.0324 nM in [5], 0.944 nM in test [6], 1.43 nM in [7] and 0.762 nM in test [8].
